T1: AfXDH (Aspergillus flavus, UniProt A0A7U2N396)
T1 construct: gene F9C07_11531; full length, 369 residues, 38,893 Da; 6xHis tag (printed as C-terminal, vector pQE80L); E. coli BL21 (DE3); monomer, 2 Zn per monomer
T1 sequence (A0A7U2N396 1-369): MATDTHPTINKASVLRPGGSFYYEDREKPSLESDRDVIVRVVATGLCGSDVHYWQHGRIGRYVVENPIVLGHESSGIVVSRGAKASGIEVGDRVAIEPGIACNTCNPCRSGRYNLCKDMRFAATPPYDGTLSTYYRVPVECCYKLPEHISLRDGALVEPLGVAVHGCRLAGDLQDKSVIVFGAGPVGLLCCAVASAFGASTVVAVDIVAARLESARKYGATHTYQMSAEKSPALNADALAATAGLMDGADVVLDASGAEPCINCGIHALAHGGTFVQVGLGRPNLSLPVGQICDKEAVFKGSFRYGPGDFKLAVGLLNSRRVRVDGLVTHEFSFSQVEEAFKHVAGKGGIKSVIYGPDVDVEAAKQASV

B1: AfXDH (Aspergillus flavus NRRL3357) (protein)
chain: T1 sequence (A0A7U2N396 1-369)
notes: full length, 369 residues, 38,893 Da; 6xHis tag (printed as C-terminal, vector pQE80L); E. coli BL21 (DE3); monomer, 2 Zn per monomer

Experiments:
AfXDH = target: T1, AfXDH; test: product inhibition of xylitol oxidation; type: biochemical; details: read-out: K i, NADH
[1] = substrate: NC(=O)c1ccc[n+]([C@@H]2O[C@H](COP(=O)(O)OP(=O)(O)OC[C@H]3O[C@@H](n4cnc5c(N)ncnc54)[C@H](O)[C@@H]3O)[C@@H](O)[C@H]2O)c1; test: NADH formation at A340, Michaelis-Menten fit; type: biochemical, Aspergillus flavus; details: xylitol, 20 mM Tris-glycine pH 9.5, 0.1 mM Zn2+, 0.1-3 mM NAD+, b45 prints 0.15 mM, varied: cofactor
Text: (§1) NADH formation at A340, Michaelis-Menten fit on AfXDH

[2] = substrate: OC[C@@H](O)[C@H](O)[C@@H](O)CO; test: NADH formation at A340, Michaelis-Menten fit; type: biochemical, Aspergillus flavus; details: NAD+, 20 mM Tris-glycine pH 9.5, 0.1 mM Zn2+, 16.9 in abstract and Table 2, but b45 prints 16.2 mM
Text: as §1

NADH formation at A340 = substrate: OC[C@@H](O)[C@@H](O)[C@H](O)[C@@H](O)CO; test: NADH formation at A340; type: biochemical, Aspergillus flavus; details: NAD+, pH 9.5, only in abstract, b45 prints 16.2 mM for xylitol, so order in abstract may be uncertain

Row | Molecule | Ki (AfXDH) [µM] | Km [1] [mM] | Km [2] [mM] | kcat [2] [s⁻¹] | kcat/Km [2] [M⁻¹ s⁻¹] | Km (NADH formation at A340) [mM]
1 | NC(=O)C1=CN([C@@H]2O[C@H](COP(=O)(O)OP(=O)(O)OC[C@H]3O[C@@H](n4cnc5c(N)ncnc54)[C@H](O)[C@@H]3O)[C@@H](O)[C@H]2O)C=CC1 [NADH] | 250 | – | – | – | – | –
2 | B1 | – | 0.17 | 16.9 | 48.67 | 2880 | 16.2
